In the DeepSol protein solubility set:

test: soluble on expression in E. coli; label from the status in PepcDB or PDB records

Sequence | soluble on expression in E. coli
MGSDKIHHHHHHMHIDIDWQNVDTVLLDMDGTLLDLAFDNYFWQKLVPETYGAQQGISPQDAQEYIRQQYHAVQHTLNWYCLDYWSERLGLDICAMTTAQGPRAVLRDDTVPFLNALKASGKRRILLTNAHPHNLAVKLEHTGLASHLDLLLSTHTFGYPKEDQRLWRAVTEETGISAEKTLFIDDSEPILDAAARFGIRYCLGVTNPDSGLAEKHYTRHPSLNDYRRLIPSLM | not soluble
MFHLKTFSDMVESIQITSFHNAELLNFMIDEVKDARTLSKNEIIPTLDELDKVLATFKKGIAMNKTSEYSEKITALDAVRSKAFRNFIGCIQGETHRPEEDHREAARRLFILLKPYNNLNRKSYRNKTELMYKLVEVLRSDKHASDVQTVNVSAWIDKMDNANKAFDQLFDLRDNTEGERLIINNREMRHRIRLHYNRLLEIIEALLVLHADRPLEGFVGRHNERVAKMKALFALRASIGTKSTREKRDVLRSLAIGLGWSLPAGQEDFEFFAGTRILHPTEHRWYCLGKKDNIITLVLYKGKKKQSSSSSSNSSVDLPDLPAPPPSQPDNGSSGGGGEQGGGGSGGL | not soluble
MGSDKIHHHHHHMKITPIAFESLGVRSQATLIETKDLRVLVDPAVSLAPRRYNLPPHQREVDRLTQLAKVLVDVAKDVDVIVVSHYHYDHHDPGYVIPTDIYKNKIVFLKDPQNMINNSQKYRRAPRFLRSIKDKPRKIEIADGKTFEFNTTTISFSPAVPHGADERLGYVIQVAISDKDSTVIFTSDIEGAPKDVHLKFTKEKMPTVIIIDGPLSYLLGRALKEEELENSIRNMEEIIKNGLETVIIDHHVLRDINYAQVLKPVHDIAKDLGVRVTTAAEYLNLEPLILEARRKELYKEDNRPAKIPRGLANLLNAGDG | not soluble
MRCPKCNYHKSSVVDSRQAEDGNTIRRRRECEQCHTRFTTFERVEELPLLVIKKDGTREQFSRDKILNGVVQSAQKRPVSSTDIENVISRIEQEVRTTYENEVSSTAIGNLVMDELAELDEITYVRFASVYKSFKDVDEIEELLQQITNRVRGKKKRLNNDETN | not soluble
MKIYIQPLSVNSHTVEVLANSLPKIFNAEVFVLPASDVSLKCYNASRRQYNSTCILRMLPPIKVTLGVTGKDIYAKGMNFVFGEAELGGARAVLSVFRLTTADSELYRERVVKEAVHEIGHVLGLKHCSNNCVMRFSNSVQDVDRKPVSFCRECASKIRYLEHHHHHH | soluble
MSLTRKKYTYKMRSYINASHAIRWEAGIGSEHPHTWEIICEIVSSNDHMIKFEDIEEVITETISGLSGKFLNTIAPFDKINPTLENLTNYLFDMITDSLKKINCKLIRIEVGESPTRFYCISLDEGHHHHHH | soluble
MASIKKVYRGMKNGAETINDDLEAINSELTSGGNVVHKTGDETIAGKKTFTGNVEVNGSLTLPTKSWSGELGGGIILSLRKKGTTVEYSIGGEISSSILANSNLVNRSVPNEFCPRNRCSLVGHMVGGWNAFHIDIPSSGVCQWFGPTASSGTPRGTGTYPIDHHHHHH | soluble
MKQTVAAYIAKTLESAGVKRIWGVTGDSLNGLSDSLNRMGTIEWMSTRHEEVAAFAAGAEAQLSGELAVCAGSCGPGNLHLINGLFDCHRNHVPVLAIAAHIPSSEIGSGYFQETHPQELFRECSHYCELVSSPEQIPQVLAIAMRKAVLNRGVSVVVLPGDVALKPAPEGATMHWYHAPQPVVTPEEEELRKLAQLLRYSSNIALMCGSGCAGAHKELVEFAGKIKAPIVHALRGKEHVEYDNPYDVGMTGLIGFSSGFHTMMNADTLVLLGTQFPYRAFYPTDAKIIQIDINPASIGAHSKVDMALVGDIKSTLRALLPLVEEKADRKFLDKALEDYRDARKGLDDLAKPSEKAIHPQYLAQQISHFAADDAIFTCDVGTPTVWAARYLKMNGKRRLLGSFNHGSMANAMPQALGAQATEPERQVVAMCGDGGFSMLMGDFLSVVQMKLPVKIVVFNNSVLGFVAMEMKAGGYLTDGTELHDTNFARIAEACGITGIRVEKASEVDEALQRAFSIDGPVLVDVVVAKEELAIPPQIKLEQAKGFSLYMLRAIISGRGDEVIELAKTNWLR | soluble
MYEGESVVQLAKRMIEHLLKWGVTDAFTDKQIYTILEKAESTLKPLPAMLQVEHPITIVGDIHGQLDALIRYFDAVGYPPKVQFLFLGDYVDRGAKSFEVSLLLFCYKIRYPHLNVFNELPLCARVGQRILCMHGGISQNCNSWESFKALKKPNTPLTCDEGLQVDLMWADPTQDKCNTFAMNKQRAISVVFGQKGLDDFLKKLGLSLIVRAHEVSQEGFNFLFNKKCVTVFSAPYYCGNDTNCGAIMHVSDSYELSFTVLRPRMIATPENFEIVKLMENNYKGLMVASPDPNRGRHLQSADVPQPTPPSVQLVPPVTKPVEIKKQ | not soluble
MVCLQRICYEKIFLKKKIIATGTIWMSNMQQINNASVRPVSAYNTKHLQIPAIALLQSSPLPEQAIRTFSRALLTPTNHLFVNGRYIRTGLISGFDSRKLSFFQRIYLFLKSRFFTENKSVKISAVWAHDSWSNNYFHWFNDTLPRLFLLSKQIEDSVAVLPVELSKITFIVESLELLKIEHQWIDQKKSHRFESLSVLHTATLQPDINPLLQKQMRDAVFSAMKIDPQERPFRKIYISRAHARYRKIINEQELLPVLKKYGYDIIYPETYSFKEQVKLFAESNALISIHGAGHTNCMFMKQDAKVMEIRNTEWESQPLCFWGLANIFELKWEYITATRVSEVSNFNDVFIAPHIFEESLRTFENIKLEHHHHHH | not soluble
MRRYASYPTYSSVHPVGLISRVSGASGIGCRMRRYASYPTYSSVHPVGLISRVSGASGIGCRMRRYASYPTYSSVHPVGLISHVSGASGIGCRMRRHPSYPTYSSVHLVGLISRVSDASGIGCRIQSTGVFYFTWLRANRLSSFSSYWLEHHHHHH | not soluble
MDAIFLKLDNIKGESQVEGFEDQIEIMSYSHNVAMQVNNDVSLTERTSGRAHVGEMSLTKFVDLATPVLNEYCCSGRLIRTAVLTLCRNDDGKMRSLIVYTLTNVLISQLSVSGGAGGKPVETMSLNFTKIEWQITAEKSDGAQQESRTSVWDLAMNQIGK | not soluble
MKQYIPFIRKDPVVPVIRLQGVIASGPRGGLSDQGLAAVIEKAFRRGKPAGVALVINSPGGSPVQSSLIAARIRRLASEKGVRVHAFVEDVAASGGYWLACAGDEIWVDESSLVGSIGVIFSSFGFHEFMARNGIERRVHTAGRSKSLADPFLPEKPEDVERLKALQEPIHRAFIEYVKRHRGTRLDLNADLFNADVWTGQEAVRLGLADGVAHLVPKLQENYGDKVRLVPYGQRRPFLQRLGMSLAGQALAEVENRALWARYGLLEHHHHHH | not soluble
MGSDKIHHHHHHMIIDAHTHVWPEKIAAKALAGRVPGMEAKFDGTVAGLKRSMDAAGIDHCVAFGIADHARHVERANEFISSQRSDWLTPFGTIHLDLSVEENMEILQRHGIKGVKLHPLFQRFRLDDRRLWALFDAFGSDIAVITHVGFGGQGSANENSTPQMIVDIARNFPKLRFMACHFGGFRRLDEAEKYVVGLPIVLETSWPPGLAEIPTERLRAIVHRHGPDRIIFGSDWPMVDPADEIEAIRRLELHPDDEAAILGGNLARILGMES | not soluble
MSNRNLRSSTNSDLAEGQHQTPSSDSSGHGEDQPQASPGPNKKSHTPKKNISKGAVLHEKPMTVMVLTATEPFNYKEGKENMFHATVATESQYYRVKVFNMDLKEKFTENKFITISKYFNSSGILEINETATVSEAAPNQMFEVPKNIIRSAKETLKISKIKELDSGTLIYGVFAVEKKKVNDKSITFKIKDNEDNIKVVWDKEQHNINYEKGDKLQLFSFHLRKGNGKPILHSGNHSFIKGEKLLKESFEGDGYHKGPKQVVALKATKLFTYDSIKSKKMFHATVATDTEFFRVMVFEENLEKKFIPGNTIALSDYFGMYGSLAIHEYSSVSEVKSQNKEDSSSSDERPIEHLKICDLHLQTKERLVDGEFKVYRKSSGNNCICYGIWDDTGAMKVVVSGQLTSVNCEIGNTIRLVCFELTSNADEWFLRATRYSYMEVIMPEK | soluble
MGSDKIHHHHHHMLDRKLLESLGGWQGYGVERVEWPEDPGRTLSIYLKPTAKVMLCEQCGARCRQVHETTVRRVRDLPLFEYRVVLHVPRRRLWCEQCGGPRLERLAWLGRYQRVTDRLAQACSQLLQSSNVQAVARFFELGWHTVKTLDKARLRASVREPDWSKIEYLAMDEFALHKGHRYATVVVDPIGRQVLWIGPGRSRETARAFFEQLPPGAAQRIKAVAIDMTTAYELEIQAHSPQAEIVYDLFHVVAKYGREVIDRVRVDQANQLRQDRPARRIIKSSRWLLLRNRDNLDRQQAVRLDELLQANQPLLTVYVLRDELKRLWFYQRPAWARQAWNHWYEQAEQSGIAALNTFAQRLKGYLHGILARCRHPLNTSIVEGINNTIKVIKRRAYGYRDQEYFFLKIRAAFPGNAR | not soluble
MNLNYTIASQVNPHVVPFMQSDASRYRKDILSWPQRILRRQGKVISLGIMDFTRERLGNVPPVRRLLDHGYGIVGQRYYGDVNIIAPFNLRQYAYMLQNPRPHLFKLLQQQGERATLEHHHHHH | soluble
MSLAQGDTEVPTLYLWKTGPWGRCMGDDCGPGGIQTRAVWCAHVEGWTTLHTNCKQAVRPSNQQNCFKVCDWHKELYDWRLGTWDRCQPVISKSLEKSRECVKGEEGIQVREIMCIQKDKDIPAEDIICEYFEPKPLLEQACLIPCQKDCMVSEFSPWSECSRTCGSGLQHRTRHVVAPPQYGGSGCPNLTEFQVCQSNPCEEDESLYSLQVGPWSACSVPHTRQARQARRRGKNKEREKERGKAVKDPEARELIKKKRNRNRQNRQENRYWDIQIGYQTRDVTCLNRTGKSADLSFCQQERLPMTFQSCVITKECQVSEWLEWSPCSKTCHDVTSPTGTRVRTRTITQFPIGSEKECPALEEKEPCVSQGDGAVLCATYGWRTTEWTECHVDPLLSQQDKRRANQTALCGGGVQTREIYCIQTNDNMLSHGNTEGHHHHHH | not soluble
MGHHHHHHSHMLLTPRQDEIVALAKANGRVLVDELAARFSVTPQTIRKDLNDLCDTRVLTRIHGGALFPSGNENVKYEARRAIASVEKQAIGAAAAALIPNNSSLFINIGTTTEAVGEALADHHELMVITNNINVANRLRVFPGIEVVIAGGVVRGSDGGIVGEAAVDFIRQFKVDFAVIGVSAIDEDGALLDFDFREVKVAQAIISNARHVILVSDSLKFERTAPVRIGHLSQVHTFITDHCPVDSIRSICADHDVRLIETEARDA | soluble
SLIDTHCHLDLYPKPGTVIAEADKRGMFVIAVTTTPKAFLGNIRMTEGKKRIRVAVGLHPELVAERHREVEDVCKLMAKTKYVGEIGIDGSPPHKSSIKLQTEVFARFLTRASELGGKVLSIHSRGAAALVLDEIERNGHGTLPILHWFSGSKQQVERAAKLGCWFSVGPAMLRSRKGRELLASMPRHRLLTETDGPFATDVDRPLMPWDVSMALPAIADVWGTTPVGVDQVVSANFRELINATEQGRAAAKLVGNC | not soluble
MGSDKIHHHHHHVSENTLKPQVNKLLAALPTNDYERLIPHLKLVSLPTRQVIYEPGEPIKQVYFPQNAVVSIVTGMKDGSTVEVGIVSNEGMVGIPVILGGSTTTTKAFVQVAGSGVQIDADVLRTEFNRGGAIQNLLLRYIRATYTELTQGCACNRLHTLEERLARWLLTVSDRLESEEFPLTQEFIAQMLGVRRSGVTVAASALSRAGMISYQRGQINILNREDLEETSCECYRVIQNEFARLLKNQPKRDRR | not soluble
